One block for each substance: values may come before it.
Columns and labels:
[1] = molecular target: Myf5 (full length, mouse) (mouse) (UniProt P24699)
[2] = molecular target: Myogenin (full length, mouse) (mouse) (UniProt P12979)
[3] = molecular target: MyoD (full length, mouse) (mouse) (UniProt P10085)
NLSMyf5 (mouse) = NLSMyf5 (mouse) (UniProt P24699)
[4] = molecular target: Myf5 (full length, mouse) (mouse) (UniProt P24699); remark: listed apart in the source
[5] = molecular target: Myogenin (full length, mouse) (mouse) (UniProt P12979); remark: listed apart in the source
NLSMyogenin (mouse) = NLSMyogenin (mouse) (UniProt P12979)
[6] = molecular target: Myf5 (full length, mouse) (mouse) (UniProt P24699); remark: listed apart in the source
E12 [7] = molecular target: E12
[8] = molecular target: MyoDΔN-VP16 (Mus musculus (Mouse)) (UniProt P10085); assay: yeast two-hybrid, strain L40, β-galactosidase reporter
[9] = molecular target: MyoDΔC-VP16 (Mus musculus (Mouse)) (UniProt P10085); assay: as above
[10] = molecular target: T1, Lethal of Scute (AS-C T3) (Drosophila melanogaster (Fruit fly)) (UniProt P09774); assay: yeast one-hybrid, strain L40, β-galactosidase reporter
T1 sequence: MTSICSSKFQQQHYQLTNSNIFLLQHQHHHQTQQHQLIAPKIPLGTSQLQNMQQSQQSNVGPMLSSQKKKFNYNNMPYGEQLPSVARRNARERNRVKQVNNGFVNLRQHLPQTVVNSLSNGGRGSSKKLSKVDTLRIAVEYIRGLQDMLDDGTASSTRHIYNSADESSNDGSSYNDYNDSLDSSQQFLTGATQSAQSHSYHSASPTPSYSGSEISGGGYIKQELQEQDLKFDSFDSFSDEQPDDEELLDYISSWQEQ

[11] = molecular target: Myf5 (full length, mouse) (mouse) (UniProt P24699); assay: as above
[12] = molecular target: MyoD (full length, mouse) (mouse) (UniProt P10085); assay: as above
E12 [13] = assay: as above
VP16-I-mfa (mouse) [14] = molecular target: T2, VP16-I-mfa (mouse); assay: yeast hybrid assay, strain L40, β-galactosidase reporter
T2 sequence: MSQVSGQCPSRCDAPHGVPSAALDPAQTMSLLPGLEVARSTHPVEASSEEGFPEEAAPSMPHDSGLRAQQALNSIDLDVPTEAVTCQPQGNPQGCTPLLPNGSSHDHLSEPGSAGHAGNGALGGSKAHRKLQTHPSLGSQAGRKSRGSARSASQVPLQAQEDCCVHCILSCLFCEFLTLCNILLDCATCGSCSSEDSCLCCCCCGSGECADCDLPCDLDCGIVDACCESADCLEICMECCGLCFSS

[15] = molecular target: Myf5 (full length, mouse) (mouse) (UniProt P24699); assay: as above
[16] = molecular target: VP16 (Human herpesvirus 1 (strain 17) (HHV-1) (Human herpes simplex virus 1)) (UniProt P06492); assay: as above
VP16-I-mfc (mouse) [17] = assay: as above
VP16-I-mfb (mouse) [18] = assay: as above
VP16-I-mfa (mouse) [19] = molecular target: T2, VP16-I-mfa (mouse); assay: yeast hybrid assay, strain L40, β-galactosidase reporter; this LexA fusion is also active with VP16 alone
[20] = molecular target: Myf5 (full length, mouse) (mouse) (UniProt P24699); assay: as above
VP16-I-mfc (mouse) [21] = assay: as above
VP16-I-mfb (mouse) [22] = assay: as above
[23] = molecular target: full length Myf5 or myogenin; assay: yeast one-hybrid, strain L40, β-galactosidase reporter
[24] = molecular target: Myogenin (full length, mouse) (mouse) (UniProt P12979); assay: as above
Myogenin (Mus musculus) = assay: cell_activity; settings: NIH3T3
Myf5 (Mus musculus) = assay: cell_activity; settings: NIH3T3
MyoD (Mus musculus) = assay: cell_activity; settings: NIH3T3
E12 [25] = assay: cell_activity; settings: NIH3T3; 76.3% with I-mfa

Sequence of LexA-I-mfa (P0A7C2 other isoform, or with tags, fused parts or gaps limits assumed): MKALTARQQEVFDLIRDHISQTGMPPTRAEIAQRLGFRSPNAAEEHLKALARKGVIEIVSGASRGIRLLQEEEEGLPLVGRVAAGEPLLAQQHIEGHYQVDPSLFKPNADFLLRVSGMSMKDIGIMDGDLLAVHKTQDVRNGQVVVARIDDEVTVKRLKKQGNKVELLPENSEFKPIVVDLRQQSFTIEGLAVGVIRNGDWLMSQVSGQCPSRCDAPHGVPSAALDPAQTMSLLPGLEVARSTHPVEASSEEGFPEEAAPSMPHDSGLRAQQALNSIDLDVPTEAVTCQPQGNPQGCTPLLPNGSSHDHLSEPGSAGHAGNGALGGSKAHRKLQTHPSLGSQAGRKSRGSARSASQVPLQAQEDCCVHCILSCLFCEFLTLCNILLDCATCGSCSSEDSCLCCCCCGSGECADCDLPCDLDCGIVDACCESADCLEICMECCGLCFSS
Sequence of LexA-I-mfb (P0A7C2 other isoform, or with tags, fused parts or gaps limits assumed): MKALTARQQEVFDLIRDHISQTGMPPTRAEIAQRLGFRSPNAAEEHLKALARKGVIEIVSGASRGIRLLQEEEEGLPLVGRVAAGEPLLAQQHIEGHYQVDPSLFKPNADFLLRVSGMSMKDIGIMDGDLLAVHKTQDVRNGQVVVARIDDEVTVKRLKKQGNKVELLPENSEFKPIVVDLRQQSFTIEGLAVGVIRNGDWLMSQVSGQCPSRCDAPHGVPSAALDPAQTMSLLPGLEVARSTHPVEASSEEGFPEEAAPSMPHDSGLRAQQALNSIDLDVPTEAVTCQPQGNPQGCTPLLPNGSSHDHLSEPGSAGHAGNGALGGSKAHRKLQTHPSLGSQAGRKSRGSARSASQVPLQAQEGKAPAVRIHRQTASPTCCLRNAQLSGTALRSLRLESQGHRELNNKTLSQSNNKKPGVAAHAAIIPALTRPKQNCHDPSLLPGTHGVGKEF
Sequence of LexA-I-mfc (P0A7C2 other isoform, or with tags, fused parts or gaps limits assumed): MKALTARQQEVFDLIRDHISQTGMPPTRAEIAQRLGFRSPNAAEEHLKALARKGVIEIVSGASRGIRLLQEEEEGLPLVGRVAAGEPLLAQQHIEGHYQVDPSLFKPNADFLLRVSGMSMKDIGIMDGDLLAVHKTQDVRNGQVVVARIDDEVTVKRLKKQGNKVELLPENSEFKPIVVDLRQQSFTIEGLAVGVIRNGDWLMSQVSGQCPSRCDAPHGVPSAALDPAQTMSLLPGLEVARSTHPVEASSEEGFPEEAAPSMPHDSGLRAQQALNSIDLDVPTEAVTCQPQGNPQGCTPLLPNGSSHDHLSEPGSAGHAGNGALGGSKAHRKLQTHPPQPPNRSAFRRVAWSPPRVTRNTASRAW
Sequence of LexA (P0A7C2 whole entry): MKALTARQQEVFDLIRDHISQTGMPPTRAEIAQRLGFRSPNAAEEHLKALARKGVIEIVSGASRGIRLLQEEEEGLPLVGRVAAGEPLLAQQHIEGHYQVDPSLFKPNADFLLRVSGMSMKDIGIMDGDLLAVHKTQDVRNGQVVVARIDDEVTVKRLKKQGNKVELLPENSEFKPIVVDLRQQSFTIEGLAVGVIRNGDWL
Sequence of LexA-I-mfa (163-246) (P0A7C2 other isoform, or with tags, fused parts or gaps limits assumed): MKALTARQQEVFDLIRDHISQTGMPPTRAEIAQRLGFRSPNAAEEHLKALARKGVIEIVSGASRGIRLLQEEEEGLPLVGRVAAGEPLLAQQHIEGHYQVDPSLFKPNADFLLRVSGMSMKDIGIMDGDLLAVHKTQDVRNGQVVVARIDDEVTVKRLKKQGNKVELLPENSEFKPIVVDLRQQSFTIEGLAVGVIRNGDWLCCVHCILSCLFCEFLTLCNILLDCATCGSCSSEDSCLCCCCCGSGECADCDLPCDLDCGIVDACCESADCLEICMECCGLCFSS
Sequence of Myogenin (full length, mouse) (mouse) (P12979 whole entry): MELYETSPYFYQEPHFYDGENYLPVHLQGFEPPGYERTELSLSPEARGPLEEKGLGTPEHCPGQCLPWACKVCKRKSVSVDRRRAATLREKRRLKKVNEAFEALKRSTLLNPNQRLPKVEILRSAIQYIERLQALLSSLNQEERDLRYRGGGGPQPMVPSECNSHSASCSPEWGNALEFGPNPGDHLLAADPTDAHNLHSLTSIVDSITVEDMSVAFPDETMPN
Sequence of LexA-I-mfa (203-246) (P0A7C2 other isoform, or with tags, fused parts or gaps limits assumed): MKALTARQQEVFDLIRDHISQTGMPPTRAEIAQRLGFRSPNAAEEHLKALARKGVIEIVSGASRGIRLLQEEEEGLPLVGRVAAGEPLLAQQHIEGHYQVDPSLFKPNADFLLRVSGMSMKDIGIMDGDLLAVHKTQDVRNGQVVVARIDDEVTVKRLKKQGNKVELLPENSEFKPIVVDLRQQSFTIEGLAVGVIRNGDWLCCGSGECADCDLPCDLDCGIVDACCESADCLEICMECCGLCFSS

Relative CAT Activity (%), p4R-TK-CAT, NIH3T3 [1]: 0.9%
Relative CAT Activity (%), p4R-TK-CAT, NIH3T3 [2]: 1.5%
Relative CAT Activity (%), p4R-TK-CAT, NIH3T3 [3]: 10.6%
Relative CAT Activity (%), experiment of Table 7 (NLSMyf5 (mouse)): 3.7%
Relative CAT Activity (%), experiment of Table 7 [4]: 0.1%
Relative CAT Activity (%), experiment of Table 7 [5]: 0.6%
Relative CAT Activity (%), experiment of Table 7 (NLSMyogenin (mouse)): 7.5%
CAT (%) +Myf5, p4R-TK-CAT reporter, NIH3T3 [6]: 2%
Substance: HA-I-mfa

CAT (%) +Myf5, p4R-TK-CAT reporter, NIH3T3 [6]: 5%
CAT (%) +E12, p4R-TK-CAT reporter, NIH3T3 (E12 [7]): 113%
Substance: HA-I-mfa (1-202)

CAT (%) +Myf5, p4R-TK-CAT reporter, NIH3T3 [6]: 4%
CAT (%) +E12, p4R-TK-CAT reporter, NIH3T3 (E12 [7]): 81%
Substance: HA-I-mfa (29-246)

CAT (%) +Myf5, p4R-TK-CAT reporter, NIH3T3 [6]: 7%
CAT (%) +E12, p4R-TK-CAT reporter, NIH3T3 (E12 [7]): 89%
Substance: HA-I-mfa (87-202)

CAT (%) +Myf5, p4R-TK-CAT reporter, NIH3T3 [6]: 2%
CAT (%) +E12, p4R-TK-CAT reporter, NIH3T3 (E12 [7]): 53%
Substance: HA-I-mfa (87-246)

Substance: HA-I-mfa (163-202)
CAT (%) +Myf5, p4R-TK-CAT reporter, NIH3T3 [6]: 44%
CAT (%) +E12, p4R-TK-CAT reporter, NIH3T3 (E12 [7]): 98%

CAT (%) +Myf5, p4R-TK-CAT reporter, NIH3T3 [6]: 2%
CAT (%) +E12, p4R-TK-CAT reporter, NIH3T3 (E12 [7]): 18%
Substance: HA-I-mfa (163-246)

CAT (%) +Myf5, p4R-TK-CAT reporter, NIH3T3 [6]: 78%
CAT (%) +E12, p4R-TK-CAT reporter, NIH3T3 (E12 [7]): 93%
Substance: HA-I-mfa (203-246)

Relative CAT Activity (%), p4R-TK-CAT, NIH3T3 [1]: 94.8%
Relative CAT Activity (%), p4R-TK-CAT, NIH3T3 [2]: 82.7%
Relative CAT Activity (%), p4R-TK-CAT, NIH3T3 [3]: 96.5%
CAT (%) +Myf5, p4R-TK-CAT reporter, NIH3T3 [6]: 74.5%
CAT (%) +E12, p4R-TK-CAT reporter, NIH3T3 (E12 [7]): 100%
Substance: HA-I-mfb

Relative CAT Activity (%), p4R-TK-CAT, NIH3T3 [1]: 96.4%
Relative CAT Activity (%), p4R-TK-CAT, NIH3T3 [2]: 68%
Relative CAT Activity (%), p4R-TK-CAT, NIH3T3 [3]: 96.1%
CAT (%) +Myf5, p4R-TK-CAT reporter, NIH3T3 [6]: 65%
CAT (%) +E12, p4R-TK-CAT reporter, NIH3T3 (E12 [7]): 99%
Substance: HA-I-mfc

Substance: LexA (from UniProt P0A7C2)
β-galactosidase activity (arbitrary units) [8]: 0.9
β-galactosidase activity (arbitrary units) [9]: 0.6
β-galactosidase activity (arbitrary units) [10]: 1.6
β-galactosidase activity (arbitrary units) [11]: 0.9
β-galactosidase activity (arbitrary units) [12]: 0.6
β-galactosidase activity (arbitrary units) (E12 [13]): 2.3

Substance: LexA-I-mfa (1-202) (from UniProt P0A7C2)
β-galactosidase activity (arbitrary units) (VP16-I-mfa (mouse) [14]): 95
β-galactosidase activity (arbitrary units) [15]: 34.5
β-galactosidase activity (arbitrary units) [16]: < 0.1

Substance: LexA-I-mfa (29-246) (from UniProt P0A7C2)
β-galactosidase activity (arbitrary units) (VP16-I-mfa (mouse) [14]): 10.1
β-galactosidase activity (arbitrary units) [15]: 84.7
β-galactosidase activity (arbitrary units) [16]: 0.8

Substance: LexA-I-mfa (87-202) (from UniProt P0A7C2)
β-galactosidase activity (arbitrary units) (VP16-I-mfa (mouse) [14]): 9.3
β-galactosidase activity (arbitrary units) [15]: 27.6
β-galactosidase activity (arbitrary units) [16]: < 0.1

Substance: LexA-I-mfa (87-246) (from UniProt P0A7C2)
β-galactosidase activity (arbitrary units) (VP16-I-mfa (mouse) [14]): 12.5
β-galactosidase activity (arbitrary units) [15]: 74.3
β-galactosidase activity (arbitrary units) (VP16-I-mfc (mouse) [17]): 0.7
β-galactosidase activity (arbitrary units) [16]: 0.8

Substance: LexA-I-mfa (163-246) (from UniProt P0A7C2)
β-galactosidase activity (arbitrary units) (VP16-I-mfa (mouse) [14]): 3.8
β-galactosidase activity (arbitrary units) [15]: 71.3
β-galactosidase activity (arbitrary units) (VP16-I-mfc (mouse) [17]): 0.2
β-galactosidase activity (arbitrary units) (VP16-I-mfb (mouse) [18]): 0.6
β-galactosidase activity (arbitrary units) [16]: 0.3

Substance: LexA-I-mfa (203-246) (from UniProt P0A7C2)
β-galactosidase activity (arbitrary units) (VP16-I-mfa (mouse) [19]): 95.2
β-galactosidase activity (arbitrary units) [20]: 57.2
β-galactosidase activity (arbitrary units) (VP16-I-mfc (mouse) [21]): 52.3
β-galactosidase activity (arbitrary units) (VP16-I-mfb (mouse) [22]): 39.2
β-galactosidase activity (arbitrary units) [16]: 45.8

Substance: LexA-I-mfa (from UniProt P0A7C2)
β-galactosidase activity (arbitrary units) [8]: 96.4
β-galactosidase activity (arbitrary units) [9]: 5.6
β-galactosidase activity (arbitrary units) (VP16-I-mfa (mouse) [14]): 6.4
β-galactosidase activity (arbitrary units) [15]: 66
β-galactosidase activity (arbitrary units) [16]: 0.5
β-galactosidase activity (arbitrary units) [10]: 2.3
fold β-galactosidase activity over LexA-I-mfa alone [23]: 70 to 80 fold
β-galactosidase activity (arbitrary units) [11]: 68.5
β-galactosidase activity (arbitrary units) [24]: 63.6
fold β-galactosidase activity over the LexA-I-mfa control [12]: 5 fold
β-galactosidase activity (arbitrary units) [12]: 4.3
β-galactosidase activity (arbitrary units) (E12 [13]): 2.3

Substance: LexA-I-mfa(163-202) (from UniProt P0A7C2)
β-galactosidase activity (arbitrary units) (VP16-I-mfa (mouse) [14]): 4.3
β-galactosidase activity (arbitrary units) [15]: 57.1
β-galactosidase activity (arbitrary units) (VP16-I-mfc (mouse) [17]): < 0.1
β-galactosidase activity (arbitrary units) (VP16-I-mfb (mouse) [18]): 0.2

Substance: LexA-I-mfb (from UniProt P0A7C2)
β-galactosidase activity (arbitrary units) (VP16-I-mfa (mouse) [14]): 0.2
β-galactosidase activity (arbitrary units) [15]: < 0.1
β-galactosidase activity (arbitrary units) (VP16-I-mfb (mouse) [18]): < 0.1
β-galactosidase activity (arbitrary units) [16]: < 0.1
β-galactosidase activity (arbitrary units) [11]: 0.4
β-galactosidase activity (arbitrary units) [12]: 1.1
β-galactosidase activity (arbitrary units) (E12 [13]): 0.6

Substance: LexA-I-mfc (from UniProt P0A7C2)
β-galactosidase activity (arbitrary units) (VP16-I-mfa (mouse) [14]): < 0.1
β-galactosidase activity (arbitrary units) (VP16-I-mfc (mouse) [17]): < 0.1
β-galactosidase activity (arbitrary units) [16]: < 0.1
β-galactosidase activity (arbitrary units) [10]: 0.1
β-galactosidase activity (arbitrary units) [12]: 0.4
β-galactosidase activity (arbitrary units) (E12 [13]): 1.4

Substance: MCK-CAT reporter, 3.3 kb MCK promoter
activity (Myogenin (Mus musculus); reduced to 2% by I-mfa, text names p4R-TK-CAT but Table 6 MCK-CAT): 33000 CAT units
activity (Myf5 (Mus musculus); reduced to 9% by I-mfa, text names p4R-TK-CAT but Table 6 MCK-CAT): 79500 CAT units
activity (MyoD (Mus musculus); reduced to 27% by I-mfa, text names p4R-TK-CAT but Table 6 MCK-CAT): 37200 CAT units

Substance: p4R-TK-CAT reporter, four oligomerized MyoD binding sites (E boxes)
activity (Myogenin (Mus musculus); reduced to 1.5% by I-mfa): 17400 CAT units
activity (Myf5 (Mus musculus); reduced to 0.9% by I-mfa): 53100 CAT units
activity (E12 [25]): 53600 CAT units
activity (MyoD (Mus musculus); reduced to 10.6% by I-mfa): 55400 CAT units

Source: patent publication US5885797
